Experimental data: PMC7840601 (2020)

Target: human C3b (CompTech) (human)
Assay: SPR

human C3b (CompTech) (human), sequence (chain, as listed by the source, chain 1 of 2): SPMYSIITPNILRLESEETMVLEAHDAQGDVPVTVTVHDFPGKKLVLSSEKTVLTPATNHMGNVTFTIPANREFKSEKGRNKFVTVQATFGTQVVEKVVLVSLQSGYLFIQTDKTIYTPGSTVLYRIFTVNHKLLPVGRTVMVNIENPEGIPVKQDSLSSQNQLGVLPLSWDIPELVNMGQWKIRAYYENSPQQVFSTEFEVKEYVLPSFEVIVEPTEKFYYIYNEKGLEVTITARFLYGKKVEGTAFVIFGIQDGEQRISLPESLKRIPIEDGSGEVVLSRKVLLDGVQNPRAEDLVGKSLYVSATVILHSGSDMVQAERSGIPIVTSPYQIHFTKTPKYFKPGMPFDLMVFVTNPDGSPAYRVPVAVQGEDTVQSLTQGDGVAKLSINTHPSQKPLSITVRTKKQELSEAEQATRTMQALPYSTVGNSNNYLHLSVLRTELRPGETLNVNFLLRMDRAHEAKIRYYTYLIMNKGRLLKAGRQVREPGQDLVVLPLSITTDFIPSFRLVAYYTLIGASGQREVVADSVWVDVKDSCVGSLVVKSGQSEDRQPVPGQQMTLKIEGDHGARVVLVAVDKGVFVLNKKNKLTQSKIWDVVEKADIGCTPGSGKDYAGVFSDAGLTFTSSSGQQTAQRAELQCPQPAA
human C3b (CompTech) (human), sequence (chain, as listed by the source, chain 2 of 2): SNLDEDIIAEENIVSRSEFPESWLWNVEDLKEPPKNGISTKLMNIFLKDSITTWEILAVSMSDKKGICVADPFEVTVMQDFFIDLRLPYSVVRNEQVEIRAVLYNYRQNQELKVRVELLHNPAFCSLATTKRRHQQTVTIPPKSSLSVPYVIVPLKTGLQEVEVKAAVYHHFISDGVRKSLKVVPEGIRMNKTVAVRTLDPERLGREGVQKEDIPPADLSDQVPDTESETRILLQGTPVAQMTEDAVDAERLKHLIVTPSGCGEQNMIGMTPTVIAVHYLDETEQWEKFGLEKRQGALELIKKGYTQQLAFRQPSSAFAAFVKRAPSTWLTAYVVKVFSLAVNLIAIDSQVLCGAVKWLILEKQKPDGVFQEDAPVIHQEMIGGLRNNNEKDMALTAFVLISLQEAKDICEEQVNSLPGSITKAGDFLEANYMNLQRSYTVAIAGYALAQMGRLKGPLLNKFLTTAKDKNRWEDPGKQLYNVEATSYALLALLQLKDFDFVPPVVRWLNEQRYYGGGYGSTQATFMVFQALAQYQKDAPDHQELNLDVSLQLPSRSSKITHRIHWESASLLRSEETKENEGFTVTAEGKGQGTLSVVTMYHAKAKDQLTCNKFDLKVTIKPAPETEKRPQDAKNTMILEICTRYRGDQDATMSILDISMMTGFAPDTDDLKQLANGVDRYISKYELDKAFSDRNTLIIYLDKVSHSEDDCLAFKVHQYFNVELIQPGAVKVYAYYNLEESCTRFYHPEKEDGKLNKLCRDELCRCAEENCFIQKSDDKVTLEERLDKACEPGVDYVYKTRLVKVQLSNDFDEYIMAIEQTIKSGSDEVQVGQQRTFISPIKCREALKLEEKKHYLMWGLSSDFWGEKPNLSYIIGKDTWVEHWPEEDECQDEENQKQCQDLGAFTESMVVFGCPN

Kd: 18.1 µM
B1: FH1-4 WT (complement factor H CCPs 1-4, wild type) (domain or fragment)
chain: EDCNELPPRRNTEILTGSWSDQTYPEGTQAIYKCRPGYRSLGNVIMVCRKGEWVALNPLRKCQKRPCGHPGDTPFGTFTLTGGNVFEYGVKAVYTCNEGYQLLGEINYRECDTDGWTNDIPICEVVKCLPVTAPENGKIVSSAMEPDREYHFGQAVRFVCNSGYKIEGDEEMHCSDDGFWSKEKPKCVEISCKSPDVINGSPISQKIIYKENERFQYKCNMGYEYSERGDAVCTESGWRPLPSCE
